Source: the DeepSol protein solubility set

Assay: soluble on expression in E. coli; label from the status in PepcDB or PDB records

Row | Sequence | soluble on expression in E. coli
1 | MTNIWKKNYETAKEVEEFVKKAYELGDVTELELLRAKRERSIAEVKLKVSRSKYEASLKELSRLLAKEVRDVEGELSAGVAMKEVNIDTLPVVLSIKKKIEAIDRQIQLEKALAKPKLATGFVVEESEEGYYGLRGSLTLELPLFYRREGEILQNIAMKKALKRRLEAELLKVKSRLESVKIRLETLQKELEKLEREVIPRAREELALAIKSYKLKAITLLELSDVRRKYYELLINRAELLLDIHRTYSEFIEIGGWRR | not soluble
2 | MTNMDNYCVIMGGGIGSRFWPFSRKTLPKQFLDFFGTGRSLLQQTFDRFQKVIPTENILIVTNAMYADLVKEQLPELDEKQILLEPARRNTAPCIAWAAYHIRALNPNANIVVAPSDHLILKEEEFRAAIIKGLEFVSHSEKLLTLGIKPNRPETGYGYIQIDEPTGDGFYKVKTFTEKPELELAKVFVESGEFYWNSGLFMWNVNTIIKAAEILLPELVSKLAPGKNIYATDKEKAFIEENFPACPNVSIDFGIMEKADNVYVSLGDFGWSDLGTWGSLYDLSERDREGNVTLKSHSLIYNGKDNMIVLPKGKLAVIDGLEGYLIAESDNVLLICRKDEEHSIRKYVNDAQMQLGDDFI | not soluble
3 | MTNPVDVNLINGIALAFEGDAVYSYYVRRHLIFQGKTKPSQLHRLATRYVSAKAQANLIQAMLEAQLLTEKEEDIYKRGRNTNSHTKAKNADIITYRMSTGFEAIMGYLDMMGQKERLEELIRWCIEYVEKQQLISSLEHHHHHH | soluble
4 | MTNSEPRRMTCDSEVVWKKLQDGLDVAYRRENMAPKDYMTLYTSVYDYCTSITLSTSRRDGEDGRAESSTPARTAGADFVGHEMYQRVEEYVKAYVIAVCEKGAELSGEDLLKYYTTEWENFRISSKVMDGIFAYLNRHWIRRELDEGHENIYMVYTLALVVWKRNLFNDLKDKVIDAMLELIRSERTGSMINSRYISGVVECLVELGVDDSETDAKKDAETKKLAVYKEFFEVKFLEATRGFYTQEAANFLSNGGNVTDYMIKVETRLNQEDDRCQLYLNSSTKTPLATCCESVLISNQLDFLQRHFGGLLVDKRDDDLSRMFKLCDRVPNGLDELRKSLENHIAKEGHQALERVAMEAATDAKLYVKTLLEVHERYQSLVNRSFKNEPGFMQSLDKAATSFINNNAVTKRAPPQAQLTKSAELLARYCDQLLRKSSKMPDEAELEELQTKIMVVFKYIDDKDVFSKFYTKMFSKRLISELSASDEAEANFITKLKSMCGYEYTARLSKMVNDTQVSKDLTADFKEKKADMLGQKSVEFNVLVLSSGSWPTFPTTPITLPQQLSKTIEIFGQFYNEKFNGRRLTWVYSQSRGEITSTAFPKKYVFTATTAQMCTMLLFNEQDSYTVEQIAAATKMDEKSAPAIVGSLIKNLVLKADTELQKEDEVPMTATVSLNKAYMNKKVRVDLSKFTMKQDAVRDTENVQKNVEEDRKSVISACIVRIMKTRKRVQHQQLMTEVITQLSGRFKPKVEMIKRCIGSLIEKEYMLRTEGQKDLYEYLA | not soluble
5 | MTNTAKILNFCRGNFAKQERNVADLDDGYARLSNMLLEAYSGADLTKRQFKVLLAILRKTYGWNKPMDRITDSQLSEITKLPVKRCNEAKLELVRMNIIKQQGGMFGPNKNISEWCIPQNEGKSPKTRDKTSLKLGDCYPSKQGDTKDTITKEKRKDYSSENSGESSDQPENDLSVVKPDAAIQSGSKWGTAEDLTAAEWMFDMVKTIAPSARKPNFAGWANDIRLMRERDGRNHRDMCVLFRWACQDNFWSGNVLSPAKLRDKWTQLEINRNKQQAGVTACKPKLDLTNTDWIYGVDL | not soluble
6 | MTNWLIAYQGEPGAYSEIAALRFGEPLPCESFDDVFSAVTEQKADYAVIPIENSLGGSIHQNYDLLLRRPVVILAETFVKVEHCLLGLPGASVETATKAMSHPQALVQCHNFFATHPQIRAEAAYDTAGSAKMVAESRDKSALAIASKRAGELYGLDILKENLADEEWNITRFFCIAHENN | not soluble
7 | MTPEQAHARARATGPLPLGAGEPAPRGMVRLAHGDGTGLALQVWPDGATPSLLEEYQVAPVNVERSGETRRVLAAALKCCWTDLGADPWPGAPAPVEDVLSAYRALIGRGDDLMRNWAIGALRRLHDSAWLEVEDGVVRLGPRCACWPSESHAQLRELMRRLPTGDEGLTGLEVLPADGRAPAETAASVAPPEDVDEDLLGPFDERRRAEIVAAFIAVEHAAEPVHEARLPALRDPVLRRALAEMLQRRGRVLIQDREAWTSGYAPEVTAVTGTTVGEAERAVLVLVLIHSVAIPRADGLLPADSWLSPFPAQVEELRRHTRLPIGELEAALRTLRHAGLVTQVKAGEEAGGYTPGPQFHRLTPQARRGLQEELILAAGPHTPLAAAVRANRR | not soluble
8 | MTPPIISPESFEALRRMRAAEPTMVAERFKQRRKRELLGEDGKLFIVAADHPARGALAVGDNETAMANRYELLERMAIALSRPGVDGVLGTPDIIDDLAALGLLDDKIVVGSMNRGGLRGASFEMDDRYTGYNVSSMVDRGVDFAKTLVRINLSDAGTAPTLEATAHAVNEAAAAQLPIMLEPFMSNWVNGKVVNDLSTDAVIQSVAIAAGLGNDSSYTWMKLPVVEEMERVMESTTMPTLLLGGEGGNDPDATFASWEHALTLPGVRGLTVGRTLLYPQDGDVAAAVDTAARLVHTDIQQFTSQSILEHHHHHH | soluble
9 | MTPSVAQNTKYVNLFIGTSGDNGQVAPGAAAPFGMVCVCPDNDPRSHAGYDYAVTKVSGISVNRLSGVGCSGGGGNLRIRPVAPSQELHIKKSREKATPGYYSTAFTNGIKTELTATNAMAVERYKFPRSLSAALWIDFASTFEDVATCHYKRISETCIEGYVQAKNVCGHGCYKLYFSLNTSQPLEHHHHHH | not soluble
10 | MTPTEQAAVRPPLPVKMVIAGGFGVGKTTAVGSISEIVPLTTEAAITEVAAGVDDLTHTPRKTTTTVAMDFGCITIDPTLKLYLFGTPGQDRFGFMWDDLVEGAVGGLVIVDTRRLDDCYAAVDYFEHKQIPFAVALNAFDGRIEHDLDEVRWALDVAERVPVVVFDARERGSVRDALLVVLELALARTGALEHHHHHH | not soluble
11 | MTQANLSETLFKPRFKHPETSTLVRRFNHGAQPPVQSALDGKTIPHWYRMINRLMWIWRGIDPREILDVQARIVMSDAERTDDDLYDTVIGYRGGNWIYEWATQAMVWQQKACAEDDPQLSGRHWLHAATLYNIAAYPHLKGDDLAEQAQALSNRAYEEAAQRLPGTMRQMEFTVPGGAPITGFLHMPKGDGPFPTVLMCGGLDAMQTDYYSLYERYFAPRGIAMLTIDMPSVGFSSKWKLTQDSSLLHQHVLKALPNVPWVDHTRVAAFGFRFGANVAVRLAYLESPRLKAVACLGPVVHTLLSDFKCQQQVPEMYLDVLASRLGMHDASDEALRVELNRYSLKVQGLLGRRCPTPMLSGYWKNDPFSPEEDSRLITSSSADGKLLEIPFNPVYRNFDKGLQEITDWIEKRLC | soluble
12 | MTQFDKQYNSIIKDIINNGISDEEFDVRTKWDSDGTPAHTLSVISKQMRFDNSEVPILTTKKVAWKTAIKELLWIWQLKSNDVNDLNMMGVHIWDQWKQEDGTIGHAYGFQLGKKNRSLNGEKVDQVDYLLHQLKNNPSSRRHITMLWNPDELDAMALTPCVYETQWYVKHGKLHLEVRARSNDMALGNPFNVFQYNVLQRMIAQVTGYELGEYIFNIGDCHVYTRHIDNLKIQMEREQFEAPELWINPEVKDFYDFTIDDFKLINYKHGDKLLFEVAV | soluble
13 | MTQFNPVDHPHRRYNPLTGQWILVSPHRAKRPWQGAQETPAKQVLPAHDPDCFLCAGNVRVTGDKNPDYTGTYVFTNDFAALMSDTPDAPESHDPLMRCQSARGTSRVICFSPDHSKTLPELSVAALTEIVKTWQEQTAELGKTYPWVQVFENKGAAMGCSNPHPHGQIWANSFLPNEAEREDRLQKEYFAEQKSPMLVDYVQRELADGSRTVVETEHWLAVVPYWAAWPFETLLLPKAHVLRITDLTDAQRSDLALALKKLTSRYDNLFQCSFPYSMGWHGAPFNGEENQHWQLHAHFYPPLLRSATVRKFMVGYEMLAETQRDLTAEQAAERLRAVSDIHFRESGV | soluble
14 | MTQHTRNFSFKVLTINTHKGFTAFNKRFILPELRDAVRTVGADIVCLQEVMGAHEVHPLHIENWPDTTHYEFLADTMWSDFAYGRNAVYPEGHHGNAVLSRYPIEHYENRDVSVGGSEKRGVLYCRITPPMLNRPIHVMCVHLGLRESHRQAQLTMLAGWVNALPESEPVLVAGDFNDWRQKAGPPLNAAGLEEIFTRAHGRPARTFPVSMPLLRLDRIYVKNANASSPTALPLRNWRHLSDHAPLSAEIHL | not soluble
15 | MTQIARIRDNTSERRLQAERLIGARALQEAQALRFSVFSEEFNARLKGAEQGLDIDDYDIHCSHIGVRDLNTGRLVATTRLLDHKAANTLGSFYSEEEFSLHGLAHLQGPILELGRTCVDPAYRNGGTIAVLWSELAEVLNEGGYSYLMGCASIPMQDGGIQAHAIMQRLRERYLCNEHLRAEPKNPLPTLDIPSNVICEMPPLLKAYMRLGARICGEPCWDEDFQVADVFILLKRDDLCPRYARHFKAAV | not soluble
16 | MTQRLHRDRHDRGVRGPLFSSALPRYCSRRQRFDATVLEAYAPLQQRYAAQLTHLDIAVDTVPRMRLGFDPALVPDEVVADGPVPLGRVIPAGVDSSGHPTRARLVLFRMAIEQRVVSAQERRELVTTVLTALVANYLNISPTDIDPNFQW | not soluble
17 | MTQRLKDKLAVITGGANGIGRAIAERFAVEGADIAIADLVPAPEAEAAIRNLGRRVLTVKCDVSQPGDVEAFGKQVISTFGRCDILVNNAGIYPLIPFDELTFEQWKKTFEINVDSGFLMAKAFVPGMKRNGWGRIINLTSTTYWLKIEAYTHYISTKAANIGFTRALASDLGKDGITVNAIAPSLVRTATTEASALSAMFDVLPNMLQAIPRLQVPLDLTGAAAFLASDDASFITGQTLAVDGGMVRH | soluble
18 | MTQTVKLDILSDPICPWCYIGKTQLDKALAAIPDHPFVIEWHPFQLNPDMAPEGMDRREYLERKFGGKEGAVRAYAPVVEHAEKAGLAIDFEAMQRTPNTLDAHRLIHWAGVEGKQTEAVDALFAAYFTEGRDIGDAEVLADIADSIGMDAAVVLKLLKSDADRDDIAKRDSHSREMGVSSVPTFIVANQHAVPGAQPPELWEQVIREIMSQIETTSA | not soluble
19 | MTRHALAYVAGAYEHPLRHAPDKSVAQLHAESARGALDDAGLSFADVDGYFCAGDAGLGPAYMVDYLNLTPRHVDGTEIGGGSYLAQIGHAAHAIAAGKCSVALITLAGRPRSEGQATGTEPRIPGPDRPSAPWDSAYRWTIGTIYGNFARRHMHEYGTTSEQLAWVKVAASHHAQHNPNALLRKVYTVDDVLGSPMVADPLHRLDCCVITDGGGALVIVAPEVARSLNRPRIKVV | not soluble
20 | MTRLSSGAKLNHPESSVCSPVYSWSTCIRKTSPVLFSSTIFALRRMTAPSAPCAQAPQLTRRWAKIVVENRTGSHFKIQVLHEYTGEQTNDSGYIDFKPDDRITVFEKIYYNTGFFTTGVDNWKVHGTKLIQVETEGTIARNIFGKFFVDGLPYSTGHGAFAKWKKHTLRADDDGQETVIKVFQTEVQFISPSGRSVTTFNTLGENILPFSQNPQKQ | not soluble
21 | MTRPPLPPFTAETAAEKVRLAENGWNNRSADVVTPAYSDDSRWRNRAEFVTGHDDIHAFLTRKWDKELDYRLIKELWAWSGNRIAVRYAYEWHDDSGNWFRSYGNENWEFDEDGRMSARHTSLNDLPITEDERLFHWPLGPRPDGHPGLTDLGLLEHHHHHH | not soluble
22 | MTSACGFHLRGDYLLPDEVHEISLTSFDQYSSLTRDVQKQLRMNGIRQVAPTTVTPSLDLISESLNERTLSLYQNSRAAEKELTYNVSYSVLIPGHDLKTYTTTVNRNYLDNPLTALAKSVERDMIEEEMRAQAAEQILRQMARLKADDAPVETSDVITHDDETESKVTTKEVIKSMSTTAETTQLEHHHHHH | soluble
